In patent US20260132182A1 (published 2026):
Starred links: 1 amine or outer side, 2 acyl side, 3 side chain; linkers in the order of their positions; H or OH if unused. Non-standard residues stand in square brackets, D forms with d. Groups on a side chain read outwards from the residue. *: point of attachment. Butyryl(4-SO2NHCO(CH2)16Tz) = O=C(CCCCCCCCCCCCCCCCc1nnn[nH]1)NS(=O)(=O)CCCC(=O)*; C20 diacid = O=C(O)CCCCCCCCCCCCCCCCCCC(=O)*; C18 diacid = O=C(O)CCCCCCCCCCCCCCCCC(=O)*; γGlu = O=C(O)[C@H](CCC(=O)[*:2])N[*:1]; C14 diacid = O=C(O)CCCCCCCCCCCCC(=O)*; Desaminohistidyl = O=C(CCc1c[nH]cn1)*; εLys = N[C@@H](CCCCN[*:1])C(=O)[*:2]; Trx = NC[C@H]1CC[C@H](C(=O)O)CC1; AEEA = NCCOCCOCC(=O)O; Aib = CC(C)(N)C(=O)O

T1: human amylin-3 (a) receptor (human, UniProt P30988 25-474; O60896 24-148)
T1 sequence (looked up) 1: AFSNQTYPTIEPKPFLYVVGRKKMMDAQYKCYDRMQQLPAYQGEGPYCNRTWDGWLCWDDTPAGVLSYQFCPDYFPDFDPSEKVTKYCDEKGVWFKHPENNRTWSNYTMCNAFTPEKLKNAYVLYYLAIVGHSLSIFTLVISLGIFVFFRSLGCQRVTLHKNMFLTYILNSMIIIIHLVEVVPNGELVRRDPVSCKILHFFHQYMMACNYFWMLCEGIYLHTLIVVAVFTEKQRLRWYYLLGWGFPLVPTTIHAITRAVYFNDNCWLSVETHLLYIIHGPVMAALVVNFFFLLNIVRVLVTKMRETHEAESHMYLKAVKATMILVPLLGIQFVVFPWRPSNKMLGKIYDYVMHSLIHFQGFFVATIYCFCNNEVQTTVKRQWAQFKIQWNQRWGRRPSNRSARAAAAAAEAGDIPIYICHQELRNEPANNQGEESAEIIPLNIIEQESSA
T1 sequence (looked up) 2: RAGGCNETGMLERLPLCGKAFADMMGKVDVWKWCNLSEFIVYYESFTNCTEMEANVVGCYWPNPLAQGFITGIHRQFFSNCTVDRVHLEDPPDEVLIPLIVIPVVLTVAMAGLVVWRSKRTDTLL

B1: Compound 0128 (peptide)
peptide: H[Aib]EGTFTSDVSSYLEEQAARK([AEEA-AEEA-γGlu-C18 diacid])FIEWLVRGK([AEEA-AEEA-γGlu-C18 diacid])GGEASELSTAALGRLSAELHELATLPRTETGSGSP-NH2
B2: Compound 0159 (peptide)
peptide: H[Aib]EGTFTSDVSSYLEGQAAK([εLys-AEEA-AEEA-γGlu-C18 diacid])EFIAWLVRGRGGGGGGGGGEASELSTAALGRLSAELHELATLPRTETGSGSP-NH2
B3: Compound 0132 (peptide)
peptide: H[Aib]EGTFTSDVSSYLEEQAAREFIAWLVRGK([AEEA-AEEA-γGlu-C18 diacid])GGEASELSTAALGRLSAELHELATLPRTETGSGSP-NH2
B4: Compound 0191 (peptide)
peptide: H[Aib]EGTFTSDVSSYLEGQAAREFIAWLVRGRGQEPK([AEEA-AEEA-γGlu-C18 diacid])GQAPASRLSTEALGRLSAELHELATLPRTETGSGSP-NH2
B5: Compound 0202 (peptide)
peptide: H[Aib]EGTFTSDVSSYLEGQAAK([AEEA-AEEA-γGlu-C20 diacid])EFIAWLVRGRGQEPGQAPEASELSTAALGRLSAELHELATLPRTETGSGSP-NH2
B6: Compound 0157 (peptide)
peptide: H[Aib]EGTFTSDVSSYLEGQAAK([AEEA-AEEA-γGlu-C20 diacid])EFIAWLVRGRGQAPGQEPEASELSTAALGRLSAELHELATLPRTETGSGSP-NH2
B7: Compound 0129 (peptide)
peptide: H[Aib]EGTFTSDVSSYLEEQAARK([AEEA-AEEA-γGlu-C18 diacid])FIEWLVRGRK([AEEA-AEEA-γGlu-C18 diacid])GGEASELSTAALGRLSAELHELATLPRTETGSGSP-NH2
B8: Compound 0035 (peptide)
peptide: [Desaminohistidyl]AEGTFTSDVSSYLEEQAAREFIAWLVRGRK([AEEA-AEEA-γGlu-Trx-C20 diacid])EASELSTAALGRLSAELHELATLPRTETGSGSP-NH2
B9: Compound 0156 (peptide)
peptide: H[Aib]EGTFTSDVSSYLEGQAAK([AEEA-AEEA-γGlu-C18 diacid])EFIAWLVRGRGQAPGQEPEASELSTAALGRLSAELHELATLPRTETGSGSP-NH2
B10: Compound 0144 (peptide)
peptide: H[Aib]EGTFTSDVSSYLEEQAAREFIAWLVK([AEEA-AEEA-γGlu-C18 diacid])GRGGGGGEASELSTAALGRLSAELHELATLPRTETGSGSP-NH2
B11: Compound 0125 (peptide)
peptide: H[Aib]EGTFTSDVSSYLEEQAARK(Butyryl(4-SO2NHCO(CH2)16Tz))FIAWLVRGRGEASELSTAALGRLSAELHELATLPRTETGSGSP-NH2
B12: Compound 0636 (peptide)
peptide: H[Aib]EGTFTSDVSSYLEEQAARK([AEEA-AEEA-γGlu-γGlu-γGlu-C20 diacid])FIEWLVRGRQEAASELSTAALGRLSAELHQLATLPRTETGSGSP-NH2
B13: Compound 0142 (peptide)
peptide: [Desaminohistidyl][Aib]EGTFTSDVSSYLEEQAAREFIAWLVRGRK([γGlu-C20 diacid])EASELSTAALGRLSAELHELATLPRTETGSGSP-NH2
B14: Compound 0106 (peptide)
peptide: H[Aib]EGTFTSDVSSYLEEQAARK([Ado-Ado-γGlu-C18 diacid])FIEWLVRGK([Ado-Ado-γGlu-C18 diacid])GEGQEPGGASELSTAALGRLSAELHELATLPRTETGSGSP-NH2
B15: Compound 0026 (peptide)
peptide: H[Aib]EGTFTSDVSSYLEGQAAK([AEEA-AEEA-γGlu-C18 diacid])EFIAWLVRGRGQEPGQAPEASELSTAALGRLSAELHELATLPRTETGSGSP-NH2
B16: Compound 0131 (peptide)
peptide: H[Aib]EGTFTSDVSSYLEEQAARK([γGlu-C18 diacid])FIAWLVRGRK([γGlu-C18 diacid])EASELSTAALGRLSAELHELATLPRTETGSGSP-NH2
B17: Compound 0007 (peptide)
peptide: H[Aib]EGTFTSDVSSYLEGQAAK([AEEA-AEEA-γGlu-C18 diacid])EFIAWLVRGRGGGEASELSTAALGRLSAELHELATLPRTETGSGSP-NH2
B18: Compound 0146 (peptide)
peptide: H[Aib]EGTFTSDVSSYLEEQAAREFIEWLVRGK(Butyryl(4-SO2NHCO(CH2)16Tz))GGGASELSTAALGRLSAELHELATLPRTETGSGSP-NH2
B19: Compound 0039 (peptide)
peptide: HGEGTFTSDVSSYLEEQAARK([AEEA-AEEA-γGlu-C14 diacid])FIEWLVRGK([AEEA-AEEA-γGlu-C14 diacid])GEASELSTAALGRLSAELHELATLPRTETGSGSP-NH2
B20: Compound 0124 (peptide)
peptide: [Desaminohistidyl][Aib]EGTFTSDVSSYLEEQAAREFIAWLVRGRK(Butyryl(4-SO2NHCO(CH2)16Tz))EASELSTAALGRLSAELHELATLPRTETGSGSP-NH2
B21: Compound 0147 (peptide)
peptide: H[Aib]EGTFTSDVSSYLEEQAAREFIEWLVRGK(Butyryl(4-SO2NHCO(CH2)16Tz))ASELSTAALGRLSAELHELATLPRTETGSGSP-NH2
B22: Compound 0160 (peptide)
peptide: H[Aib]EGTFTSDVSSYLEEQAARK([γGlu-C18 diacid])FIAWLVRGRGGGGGGGGK([γGlu-C18 diacid])EASELSTAALGRLSAELHELATLPRTETGSGSP-NH2
B23: Compound 0151 (peptide)
peptide: H[Aib]EGTFTSDVSSYLEGQAAREFIAWLVRGRK([AEEA-AEEA-γGlu-C18 diacid])GGGGEASELSTAALGRLSAELHELATLPRTETGSGSP-NH2
B24: Compound 0127 (peptide)
peptide: H[Aib]EGTFTSDVSSYLEEQAARK([AEEA-AEEA-γGlu-C18 diacid])FIAWLVRGK([AEEA-AEEA-γGlu-C18 diacid])GGEASELSTAALGRLSAELHELATLPRTETGSGSP-NH2
B25: Compound 0141 (peptide)
peptide: H[Aib]EGTFTSDVSSYLEEQAAREFIAWLVRGRK([γGlu-C20 diacid])EASELSTAALGRLSAELHELATLPRTETGSGSP-NH2
B26: Compound 0179 (peptide)
peptide: H[Aib]EGTFTSDVSSYLEEQAAREFIEWLVRGRK([AEEA-AEEA-γGlu-Trx-C20 diacid])EAEAEASELSTAALGRLSAELHELATLPRTETGSGSP-NH2
B27: Compound 0180 (peptide)
peptide: H[Aib]EGTFTSDVSSYLEEQAAREFIEWLVRGRK([εLys-AEEA-AEEA-γGlu-Trx-C20 diacid])EAEAEASELSTAALGRLSAELHELATLPRTETGSGSP-NH2
B28: Compound 0145 (peptide)
peptide: H[Aib]EGTFTSDVSSYLEEQAAREFIAWLVRGRGK(Butyryl(4-SO2NHCO(CH2)16Tz))GGGASELSTAALGRLSAELHELATLPRTETGSGSP-NH2

What was measured:
human GLP-1 receptor = human GLP-1 receptor (human, UniProt P43220 24-463); test: cell-based or functional assay
[1] = molecular target: T1, human amylin-3 (a) receptor; test: cell-based or functional assay

Binder	Human GLP-1R potency [EC50 (pM)] (human GLP-1 receptor)	Human AmyR3 potency [EC50 (pM)] [1]
B1	9.7 pM	110 pM
B2	30.3 pM	19.3 pM
B3	3 pM	34.9 pM
B4	5.9 pM	54.8 pM
B5	10.5 pM	28.4 pM
B6	28.7 pM	18.4 pM
B7	1.2 pM	23.5 pM
B8	16.7 pM	16 pM
B9	22.6 pM	22.6 pM
B10	7.1 pM	16.8 pM
B11	8 pM	12.2 pM
B12		8.5 pM
B13	88.2 pM	15.4 pM
B14		28.4 pM
B15	8.8 pM	14 pM
B16	16.1 pM	14.5 pM
B17	13.3 pM	9.4 pM
B18	25.7 pM	14 pM
B19	34.8 pM	59.5 pM
B20	27.9 pM	24.4 pM
B21	36.8 pM	33.7 pM
B22	11.9 pM	27.3 pM
B23	10.4 pM	9.5 pM
B24	7.1 pM	63.9 pM
B25	43.3 pM	13.2 pM
B26	8.8 pM	35.9 pM
B27	6.4 pM	37 pM
B28	11.9 pM	16.5 pM
